Assay results: patent US20230174642A1, “AFFINITY-MATURATED ANTI-ASIC1a ANTIBODIES” (SHANGHAITECH UNIVERSITY, priority 2019, published 2023)
Substitutions are numbered along the chain they refer to. Each block holds one binder with its values, some of them ahead of it.

Assays:
Test in all cases: FACS on transiently transfected CHO-K1 cells
[1] = biological target: T1, human ASIC3a-eYFP (hASIC3a-eYFP) on transiently transfected CHO-K1 cells (human, UniProt Q9UHC3 1-531)
T1 construct: whole, on cells; not shown: eYFP fusion partner
T1 sequence (looked up): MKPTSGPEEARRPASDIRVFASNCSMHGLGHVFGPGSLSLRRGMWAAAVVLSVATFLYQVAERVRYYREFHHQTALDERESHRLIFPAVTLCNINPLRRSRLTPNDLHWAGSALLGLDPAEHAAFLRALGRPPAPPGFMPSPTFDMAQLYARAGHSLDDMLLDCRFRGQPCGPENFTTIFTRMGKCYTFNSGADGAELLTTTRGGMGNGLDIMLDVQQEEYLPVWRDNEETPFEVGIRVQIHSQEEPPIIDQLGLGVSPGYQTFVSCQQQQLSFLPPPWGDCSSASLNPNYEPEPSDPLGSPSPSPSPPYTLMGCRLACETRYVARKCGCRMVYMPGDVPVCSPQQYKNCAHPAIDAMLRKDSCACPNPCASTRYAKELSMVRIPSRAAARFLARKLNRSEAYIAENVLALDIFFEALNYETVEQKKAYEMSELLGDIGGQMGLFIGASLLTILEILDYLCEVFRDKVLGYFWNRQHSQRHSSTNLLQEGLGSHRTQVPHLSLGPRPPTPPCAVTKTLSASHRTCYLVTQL
Description: (§1) To investigate the species selectivity of ASC06-IgG1 affinity-matured antibodies, plasmids encoding fusion proteins of eYFP with […] homologs of ASIC1a were constructed. These plasmids included those encoding human ASIC1a (hASIC1a-eYFP), mouse ASIC1a (mASIC1a-eYFP), and rat ASIC1a (rASIC1a-eYFP). CHO-K1 cells were transiently transfected with the ASIC1a-eYFP plasmids, and a fluorescence activated cell sorting (FACS)-based binding assay was carried out to determine binding to the homologs or isoforms of ASIC1a expressed on the cell surface. An isotype control was used as a negative control for binding (NC). ASC06-IgG1 was used as a positive control. Summarily, the CHO-K1 cells expressing the ASIC1a-eYFP (green) homologs were stained with the indicated antibody (red) and subjected to FACS.
(§2) To examine the ASIC isotype selectivity of ASC06-IgG1 affinity-matured antibodies, plasmids encoding fusion proteins of eYFP with isoforms of […] were constructed. These plasmids included those encoding human ASIC1b (hASIC1b-eYFP), human ASIC2a (hASIC2a-eYFP), and human ASIC3a (hASIC3a-eYFP). CHO-K1 cells were transiently transfected with these plasmids and used in a FACS-based binding assay disclosed herein. Binding of ASC06-IgG1 to CHO-K1 cells expressing human ASIC1a-eYFP (hASIC1a-eYFP) was used as a positive control (data not shown and FIG. 2), and an isotype control was used as a negative control for binding (NC).

[2] = biological target: T2, human ASIC2a-eYFP (hASIC2a-eYFP) on transiently transfected CHO-K1 cells (human, UniProt Q16515 1-512)
T2 construct: whole, on cells; not shown: eYFP fusion partner
T2 sequence (looked up): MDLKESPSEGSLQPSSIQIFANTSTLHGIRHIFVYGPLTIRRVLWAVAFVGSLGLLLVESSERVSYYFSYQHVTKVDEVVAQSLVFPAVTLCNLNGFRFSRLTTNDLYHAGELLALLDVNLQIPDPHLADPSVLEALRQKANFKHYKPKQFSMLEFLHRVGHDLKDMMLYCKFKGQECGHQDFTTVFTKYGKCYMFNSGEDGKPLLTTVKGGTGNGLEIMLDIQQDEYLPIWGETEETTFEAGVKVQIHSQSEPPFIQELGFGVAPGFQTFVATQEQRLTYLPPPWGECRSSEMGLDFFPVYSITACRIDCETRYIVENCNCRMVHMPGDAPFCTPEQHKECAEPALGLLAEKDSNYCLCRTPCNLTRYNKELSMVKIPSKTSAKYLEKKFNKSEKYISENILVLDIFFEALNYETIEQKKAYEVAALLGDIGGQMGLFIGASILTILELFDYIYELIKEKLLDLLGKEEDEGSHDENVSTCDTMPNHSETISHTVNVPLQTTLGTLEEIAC
Description: as §1, §2

[3] = biological target: T3, rat ASIC1a-eYFP (rASIC1a-eYFP) on transiently transfected CHO-K1 cells (rat, UniProt P55926 1-526)
T3 construct: whole, on cells; not shown: eYFP fusion partner
T3 sequence (looked up): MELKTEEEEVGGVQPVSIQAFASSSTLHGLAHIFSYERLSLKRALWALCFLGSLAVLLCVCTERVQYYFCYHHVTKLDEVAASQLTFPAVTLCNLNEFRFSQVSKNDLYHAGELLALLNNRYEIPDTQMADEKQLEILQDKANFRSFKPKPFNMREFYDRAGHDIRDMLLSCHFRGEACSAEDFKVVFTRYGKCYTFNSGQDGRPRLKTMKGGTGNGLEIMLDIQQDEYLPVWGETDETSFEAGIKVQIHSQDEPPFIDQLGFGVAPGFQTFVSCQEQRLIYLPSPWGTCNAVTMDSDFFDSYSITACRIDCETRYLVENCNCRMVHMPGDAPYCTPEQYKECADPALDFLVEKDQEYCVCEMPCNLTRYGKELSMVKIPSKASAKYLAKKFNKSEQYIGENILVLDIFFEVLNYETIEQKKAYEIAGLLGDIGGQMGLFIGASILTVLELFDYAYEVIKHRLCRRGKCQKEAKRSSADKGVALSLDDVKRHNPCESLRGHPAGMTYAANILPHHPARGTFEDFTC
Description: as §1, §2

[4] = biological target: T4, mouse ASIC1a-eYFP (mASIC1a-eYFP) on transiently transfected CHO-K1 cells (mouse, UniProt Q6NXK8 1-526)
T4 construct: whole, on cells; not shown: eYFP fusion partner
T4 sequence (looked up): T3 sequence (looked up) with S476N
Description: as §1, §2

B1: ASC06-03-IgG1 (antibody, V domains shown)
VH: QVQLQQSGGGLVQPGGSLRLSCAASGFTFSSYAMSWVRQAPGKGLEWVSAISGSGGSTYYADSVKGRFTISRDNSKNTLYLQMNSLRAEDTAVYYCAKDSFYGRAKGSWGQGTLVTVSS
VL: QSALTQPASVSGSPGQSITISCTGTSSDVGAYNYVSWYQQQPGKAPKLMIYGVSNRPSGVSNRFSGSKSGNAASLTISGLQAEDEADYYCSSYTSSSTYVFGTGTKLTVLG
notes: Full length IgG1
binding result [1]: no binding
binding result [2]: no binding
binding result [3]: binds
binding result [4]: binds

B2: ASC06-01-IgG1 (antibody, V domains shown)
VH: B1 VH with F101Y, Y102F, R104Y, A105S, S108D
VL: B1 VL
notes: Full length IgG1
binding result [1]: no binding
binding result [2]: no binding
binding result [3]: binds
binding result [4]: binds

Results, then the binder that gave them:

binding result [1]: no binding
binding result [2]: no binding
binding result [3]: binds
binding result [4]: binds
B3: ASC06-04-IgG1 (antibody, V domains shown)
VH: B1 VH with S108V
VL: B1 VL
notes: Full length IgG1

binding result [1]: no binding
binding result [2]: no binding
binding result [3]: binds
binding result [4]: binds
B4: ASC06-02-IgG1 (antibody, V domains shown)
VH: B1 VH with Y102F
VL: B1 VL
notes: Full length IgG1

binding result [1]: no binding
binding result [2]: no binding
binding result [3]: binds
binding result [4]: binds
B5: ASC06-IgG1 (antibody, V domains shown)
VH: B1 VH with R104Y, A105S, S108D
VL: B1 VL
notes: Tested as full length IgG1; also called WT antibody ASC06-IgG1; parental ASC06-IgG1 antibody
